These results are taken from PMC9401524 (Cancer Discovery, 2021).

Marks after values point to notes of the source that are not given here.

One data set relates to EGFR-mutated NSCLC. Particulars: cited from earlier work.
The nature of data set [1]: Phase I study U31402-A-U102, HER3-DXd i.v. once every 3 weeks: safety. The data set is classed as in vivo, human.
Where [2] appears, read: all patients 3.2/4.8/5.6/6.4 mg/kg (n = 81).

As for `C=CC(=O)Nc1cc(Nc2nccc(-c3cn(C)c4ccccc34)n2)c(OC)cc1N(C)CCN(C)C` [osimertinib, reference compound], in the data set on EGFR-mutated NSCLC (third-generation EGFR TKI compared with first-generation EGFR TKIs), the “Median OS” value is listed as 38.6 months.

Take Patritumab deruxtecan [HER3-DXd]: the “Patients who experienced dose-limiting toxicities” value in data set [1] (4.8 mg/kg dose group, grade 3 neutrophil count decreased, grade 4 platelet count decrease, white blood cell count decrease) was found to be 1 patient. Also, the “Patients who experienced dose-limiting toxicities” value in data set [1] (6.4 mg/kg dose group, grade 4 platelet count decrease) came out at 3 patients. In addition, the “Patients who experienced dose-limiting toxicities” value in data set [1] ([…] dose group, grade 3 febrile neutropenia and grade 4 platelet count decrease) is given as 1 patient. Moreover, the “Adjudicated treatment-related ILD, patients” value in data set [1] (all doses (4/81)) came to 5%. The “TEAEs associated with death, patients” value in data set [1] (all doses (5/81), none judged related to study treatment) came to 6%. For the same molecule, the “Treatment discontinued due to TEAEs, patients” value in data set [1] (all doses (7/81)) turned out to be 9%. In data set [1] (all doses (11/81)), the “Grade 4 thrombocytopenia, patients” value is listed as 13.6%. Further, the “Grade ≥3 neutropenia, patients” value in data set [1] (all doses (12/81)) turned out to be 15%. In addition, the “TEAEs associated with dose reduction, patients” value in data set [1] (all doses (18/81)) came to 22%. The “Grade ≥3 thrombocytopenia, patients” value in data set [1] (all doses (21/81)) was determined as 26%. In addition, the “TEAEs associated with dose interruption, patients” value in data set [1] (all doses (30/81)) is listed as 37%. Moreover, the “TEAE nausea, patients” value in data set [1] (all doses (49/81)) was found to be 60%. For the same molecule, in data set [1] (all doses (52/81)), the “Grade ≥3 TEAEs, patients” value came to 64% and the “TEAE fatigue, patients” value was determined as 64%. Moreover, in data set [1] (setting [2]), the “Adjudicated ILD” value is reported as 5 (6)^e n (%), the “Adjudicated treatment-related ILD” value was 4 (5)^f n (%), the “Any TEAE” value is 81 (100) n (%) and the “Grade ≥3 TEAE: Anemia/hemoglobin decrease” value was 6 (7) n (%). Moreover, in data set [1] (setting [2]), the “Grade ≥3 TEAE: Dyspnea” value is listed as 5 (6) n (%), the “Grade ≥3 TEAE: Fatigue” value was 8 (10) n (%), the “Grade ≥3 TEAE: Febrile neutropenia” value is on record as 5 (6) n (%) and the “Grade ≥3 TEAE: Hypokalemia” value is 4 (5) n (%). For the same molecule, in data set [1] (setting [2]), the “Grade ≥3 TEAE: Hypoxia” value was 5 (6) n (%), the “Grade ≥3 TEAE: Lymphocyte count decrease/lymphopenia” value is reported as 4 (5) n (%), the “Grade ≥3 TEAE: Neutrophil count decrease/neutropenia” value is reported as 12 (15) n (%) and the “Grade ≥3 TEAE: Platelet count decrease/thrombocytopenia” value is given as 21 (26) n (%). Moreover, in data set [1] (setting [2]), the “Grade ≥3 TEAE: White blood cell count decrease/leukopenia” value is given as 5 (6) n (%), the “Grade ≥3 TEAEs” value is 52 (64) n (%), the “Grade ≥3 treatment-related TEAEs” value is recorded as 38 (47) n (%) and the “Serious TEAEs” value was 32 (40) n (%). In data set [1] (setting [2]), the “Serious treatment-related TEAEs” value is given as 15 (19) n (%), the “TEAEs associated with death” value is 5 (6)^d n (%), the “TEAEs associated with dose interruption” value is recorded as 30 (37) n (%) and the “TEAEs associated with dose reduction” value was 18 (22) n (%). For the same molecule, in data set [1] (setting [2]), the “TEAEs associated with treatment discontinuation” value is on record as 7 (9)^b n (%), the “Treatment-related TEAEs” value is 78 (96) n (%) and the “Treatment-related TEAEs associated with death” value was 0 n (%). In addition, the “Patients who experienced dose-limiting toxicities” value in data set [1] (dose escalation part, 36 patients) is recorded as 5 patients. Moreover, in data set [1] (i.v. once every 3 weeks), the “Recommended dose for expansion (RDE)” value is reported as 5.6 mg/kg. Besides, in data set [1] (pooled RDE […] (n = 57)), the “TEAEs associated with dose interruption” value is 21 (37) n (%) and the “TEAEs associated with dose reduction” value is given as 12 (21) n (%).

B1: seribantumab (antibody, chains of the INN, looked up)
heavy: EVQLLESGGGLVQPGGSLRLSCAASGFTFSHYVMAWVRQAPGKGLEWVSSISSSGGWTLYADSVKGRFTISRDNSKNTLYLQMNSLRAEDTAVYYCTRGLKMATIFDYWGQGTLVTVSSASTKGPSVFPLAPCSRSTSESTAALGCLVKDYFPEPVTVSWNSGALTSGVHTFPAVLQSSGLYSLSSVVTVPSSNFGTQTYTCNVDHKPSNTKVDKTVERKCCVECPPCPAPPVAGPSVFLFPPKPKDTLMISRTPEVTCVVVDVSHEDPEVQFNWYVDGVEVHNAKTKPREEQFNSTFRVVSVLTVVHQDWLNGKEYKCKVSNKGLPAPIEKTISKTKGQPREPQVYTLPPSREEMTKNQVSLTCLVKGFYPSDIAVEWESNGQPENNYKTTPPMLDSDGSFFLYSKLTVDKSRWQQGNVFSCSVMHEALHNHYTQKSLSLSPG
light: QSALTQPASVSGSPGQSITISCTGTSSDVGSYNVVSWYQQHPGKAPKLIIYEVSQRPSGVSNRFSGSKSGNTASLTISGLQTEDEADYYCCSYAGSSIFVIFGGGTKVTVLGQPKAAPSVTLFPPSSEELQANKATLVCLVSDFYPGAVTVAWKADGSPVKVGVETTKPSKQSNNKYAASSYLSLTPEQWKSHRSYSCRVTHEGSTVEKTVAPAECS
For B1, in the data set with EGFR-mutated NSCLC (in combination with erlotinib), the “Efficacy of unconjugated HER3 antibody” value is on record as “did not confer clinically meaningful efficacy”.
